According to article PMC8040287, “Characterization of two enzymes from Psychrobacter cryohalolentis that are required for the biosynthesis of an unusual diacetamido-D-sugar” (The Journal of Biological Chemistry, 2021):

Key:
Pcryo_0638 = molecular target: T1, Pcryo_0638 (Psychrobacter cryohalolentis, UniProt Q1QD32); assay: X-ray crystal structure, […] Å; format: binding; conditions: pH 8.0
T1 construct: full length; N-terminal His tag removed with rTEV; expressed in E. coli Rosetta2(DE3); dimer; residues Ala 5 to Asn 399 seen in crystal
T1 sequence (Q1QD32 1-400): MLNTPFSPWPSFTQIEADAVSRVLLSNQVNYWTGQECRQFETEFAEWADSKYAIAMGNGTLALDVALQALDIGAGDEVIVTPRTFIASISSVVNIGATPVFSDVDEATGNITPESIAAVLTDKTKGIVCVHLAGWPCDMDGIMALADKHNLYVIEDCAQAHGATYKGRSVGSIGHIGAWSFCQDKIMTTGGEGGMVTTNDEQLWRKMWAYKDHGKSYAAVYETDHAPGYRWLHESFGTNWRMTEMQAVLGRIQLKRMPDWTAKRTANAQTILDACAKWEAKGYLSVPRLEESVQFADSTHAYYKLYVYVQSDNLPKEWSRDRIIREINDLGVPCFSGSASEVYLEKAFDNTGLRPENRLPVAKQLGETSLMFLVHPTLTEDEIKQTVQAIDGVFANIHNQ

[1] = molecular target: Pcryo_0637, N-acetyltransferase from Psychrobacter cryohalolentis K5T, C-terminally His-tagged form used for crystallization (Psychrobacter cryohalolentis K5T (ATCC BAA-1226)) (UniProt Q1QD33); assay: crystal structure; hanging drop, room temperature, 23-26% 2-methyl-2,4-pentanediol, 100 mM HEPES pH 7.5, with CoA or acetyl-CoA and UDP or UDP-sugar ligands (four complexes); space group R3, one subunit in the asymmetric unit, trimer formed about the crystallographic triad; 1.3-1.55 Å
purified protein = substrate: CC(=O)N[C@H]1[C@@H](OP(=O)(O)OP(=O)(O)OC[C@H]2O[C@@H](n3ccc(=O)[nH]c3=O)[C@H](O)[C@@H]2O)O[C@H](C)C(=O)[C@@H]1O; assay: purified protein; format: biochemical, Psychrobacter cryohalolentis; conditions: 50 mM HEPPS pH 8.0, 0.5 mM PLP, 40 mM sodium glutamate
[2] = molecular target: the molecule itself; assay: crystal structure; hanging drop, room temperature, 18-22% PEG 8000, 200 mM tetramethylammonium chloride, 100 mM HEPPS pH 8.0, with 1 mM PLP and 5 mM UDP-2-acetamido-4-amino-2,4,6-trideoxy-D-glucose; space group P1, one dimer in the asymmetric unit; 1.3 Å
[3] = substrate: CC(=O)N[C@H]1[C@@H](OP(=O)(O)OP(=O)(O)OC[C@H]2O[C@@H](n3ccc(=O)[nH]c3=O)[C@H](O)[C@@H]2O)O[C@H](C)[C@@H](N)[C@@H]1O; assay: discontinuous HPLC assay of acetylated product, Michaelis-Menten fit; format: biochemical, Psychrobacter cryohalolentis; conditions: 50 mM HEPPS pH 8.0, 1.5 mM acetyl-CoA, structure with CoA solved on C-terminally tagged protein
Text: (§1) discontinuous HPLC assay of acetylated product, Michaelis-Menten fit on Pcryo_0637

[4] = substrate: CC(=O)SCCNC(=O)CCNC(=O)[C@H](O)C(C)(C)COP(=O)(O)OP(=O)(O)OC[C@H]1O[C@@H](n2cnc3c(N)ncnc32)[C@H](O)[C@@H]1OP(=O)(O)O; assay: as above; format: biochemical, Psychrobacter cryohalolentis; conditions: 50 mM HEPPS pH 8.0, 8 mM UDP-2-acetamido-4-amino-2,4,6-trideoxy-D-glucose, structure with UDP solved on C-terminally tagged protein
Text: as §1

Cc1ncc(COP(=O)(O)O)c(C=O)c1O [PLP]
X-ray crystal structure, 1.3 Å (Pcryo_0638; covalent, external aldimine with the aminosugar product, half-occupancy): a mixture of the external aldimine and PMP was subsequently built into the electron density

Cc1ncc(COP(=O)(O)O)c(CN)c1O [PMP]
X-ray crystal structure, 1.3 Å (Pcryo_0638; half-occupancy beside the external aldimine): a mixture of the external aldimine and PMP was subsequently built into the electron density

Pcryo_0637, N-acetyltransferase from Psychrobacter cryohalolentis K5T, C-terminally His-tagged form used for crystallization (from UniProt Q1QD33 1-219) (enzyme)
stoichiometry N [1]: 3

B1: Pcryo_0638, PLP-dependent aminotransferase from Psychrobacter cryohalolentis K5T (enzyme)
chain: T1 sequence (Q1QD32 1-400)
notes: Pcryo_0638, aminotransferase encoded by gene 0638 of Psychrobacter cryohalolentis K5T (ATCC BAA-1226); electron density continuous from Ala 5 to Asn 399; also called protein encoded by the 0638 gene; Pyro_0638; source: E. coli Rosetta2(DE3), purified (Ni-NTA, tag removed with rTEV protease); not shown: polyhistidine tag, N-terminal, cleaved
Km (purified protein): 290 ± 40 µM | kcat (purified protein): 1.9 ± 0.2 s⁻¹ | kcat/Km (purified protein): 6600 ± 700 M⁻¹ s⁻¹ | stoichiometry N [2]: 2

B2: Pcryo_0637 (Psychrobacter cryohalolentis K5) (protein)
chain: MSKVFAVYGASGCGRSLMPVANEQLRILEGDTDSQIVFIDDALDDNITVNGYTAMNYTKFKSIKNDDKFVLIAIANSSIRQKIADKLVKDGISLWTVQGMTTLIMDEVSIDAGAALSPFVTIAANVTIGKCFHANLYSYVEHDCIIGDYVTFAPRVSCNGNIHIHDHAYIGTGAVIKQGTPDKPLIIGKGAIVGMGAVVTKEVPAGAVVIGNPARLLNK
notes: full length; kinetics with N-terminal His tag removed by rTEV; crystals with noncleavable C-terminal tag LEHHHHHH; expressed in E. coli Rosetta2(DE3); trimer; domains Ser 2-Ser 93 and Leu 94-Ala 218
Km [3]: 620 ± 50 µM | kcat [3]: 545 ± 40 s⁻¹ | kcat/Km [3]: 880000 ± 90000 M⁻¹ s⁻¹ | Km [4]: 70 ± 8 µM | kcat [4]: 1900 ± 200 s⁻¹ | kcat/Km [4]: 2.7e+07 ± 3e+06 M⁻¹ s⁻¹
